The source of these data is paper PMC5389812, “Rv3634c from Mycobacterium tuberculosis H37Rv encodes an enzyme with UDP-Gal/Glc and UDP-GalNAc 4-epimerase activities” (PLoS ONE, 2017).

To fix the notation:
B1: His-tagged Rv3634c (H3634) S121A mutant (enzyme)
chain: MRALVTGAAGFIGSTLVDRLLADGHSVVGLDNFATGRATNLEHLADNSAHVFVEADIVTADLHAILEQHRPEVVFHLAAQIDVRRSVADPQFDAAVNVIGTVRLAEAARQTGVRKIVHTSAGGSIYGTPPEYPTPETAPTDPASPYAAGKVAGEIYLNTFRHLYGLDCSHIAPANVYGPRQDPHGEAGVVAIFAQALLSGKPTRVFGDGTNTRDYVFVDDVVDAFVRVSADVGGGLRFNIGTGKETSDRQLHSAVAAAVGGPDDPEFHPPRLGDLKRSCLDIGLAERVLGWRPQIELADGVRRTVEYFRHKHTD
notes: not shown: His6, N-terminal, kept
B2: His-tagged Rv3634c (H3634) K150R mutant (enzyme)
chain: MRALVTGAAGFIGSTLVDRLLADGHSVVGLDNFATGRATNLEHLADNSAHVFVEADIVTADLHAILEQHRPEVVFHLAAQIDVRRSVADPQFDAAVNVIGTVRLAEAARQTGVRKIVHTSSGGSIYGTPPEYPTPETAPTDPASPYAAGRVAGEIYLNTFRHLYGLDCSHIAPANVYGPRQDPHGEAGVVAIFAQALLSGKPTRVFGDGTNTRDYVFVDDVVDAFVRVSADVGGGLRFNIGTGKETSDRQLHSAVAAAVGGPDDPEFHPPRLGDLKRSCLDIGLAERVLGWRPQIELADGVRRTVEYFRHKHTD
notes: as for B1
B3: His-tagged Rv3634c (H3634) Y146F mutant (enzyme)
chain: MRALVTGAAGFIGSTLVDRLLADGHSVVGLDNFATGRATNLEHLADNSAHVFVEADIVTADLHAILEQHRPEVVFHLAAQIDVRRSVADPQFDAAVNVIGTVRLAEAARQTGVRKIVHTSSGGSIYGTPPEYPTPETAPTDPASPFAAGKVAGEIYLNTFRHLYGLDCSHIAPANVYGPRQDPHGEAGVVAIFAQALLSGKPTRVFGDGTNTRDYVFVDDVVDAFVRVSADVGGGLRFNIGTGKETSDRQLHSAVAAAVGGPDDPEFHPPRLGDLKRSCLDIGLAERVLGWRPQIELADGVRRTVEYFRHKHTD
notes: as for B1

This data set deals with the molecule itself. Nature of the data set: SEC; Superdex 200 16/600 GL column, FPLC buffer (20 mM Tris pH 8.0, 100 mM NaCl); calibrated with conalbumin, ovalbumin, carbonic anhydrase, ribonuclease A and aprotinin; molecular weight from Kav.
By stoichiometry N is commonly meant the number of molecules, sites or subunits per partner or assembly. With B1, the “stoichiometry N” value was 2.
The result for B2 reads 2; that for B3, 2.
